This is an account of results in the supplement of paper PMC10567573.

± gives the standard deviation.

The data set is described as follows: protein stability index of a GFP-peptide fusion (GPS, HEK-293T) (PSI 1-6); higher = more stable.
Where [1] appears, read: treatment: DMSO, c terminus: a fixed tail appended.
Setting [2] is: treatment: MLN4924 1 uM, 8 h, c terminus: a fixed tail appended.
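Also: 24-mer peptide tiles fused after GFP, lentivirally expressed, FACS-sorted into six equal bins by GFP/DsRed ratio, decoded by Illumina sequencing, PSI is the read-weighted mean bin number.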

Take REDILSCYDVYSPDKEEQLPFGPF [PKD2L1]: the protein stability index reads like this: under setting [1], 4.09 ± 0.17; under setting [2], 3.93 ± 0.23.

In the case of GRQPCGRFLRAYREGALRAALQRS [TRADD], the protein stability index reads like this: under setting [1], 2.56 ± 0.15; under setting [2], 2.45 ± 0.4.

The sequence IDQWKNKIWPEIKVPRPDALDNES [RETREG3] returned a protein stability index under setting [1] of 4.14 ± 0.24 and a protein stability index under setting [2] of 4.3 ± 0.27.

Consider LSIQVEEERRAREWLLDAPELPEG [ZMAT5], for which the protein stability index under setting [1] is 4.71 ± 0.34 and the protein stability index under setting [2] was found to be 5.06 ± 0.41.

In the case of QCPEPPIVVHCSAGIGRTGTFCSL [PTPN9], the protein stability index turned out to be 2.17 ± 0.26 under setting [1] and 2.14 ± 0.12 under setting [2].

For the sequence LHVWQITWAMRQRGTHAVVGVATA [SPSB1], the protein stability index by setting is: under setting [1], 2.58 ± 0.31; under setting [2], 2.51 ± 0.64.

LSTNNNTLRDHFKGISSHSRSSLM [SLC2A12] yielded a protein stability index under setting [1] of 2.93 ± 0.3 and a protein stability index under setting [2] of 3.3 ± 0.16.

Take KCILKTPGKINCLRNCKTYQARKP [RHOBTB3]: the protein stability index worked out at 2.98 ± 0.17 under setting [1] and 3.03 ± 0.26 under setting [2].

On to EVQAVHKNTTYDLIANIVHDGKPS [USP39], for which the protein stability index runs as follows: under setting [1], 3.69 ± 0.17; under setting [2], 3.87 ± 0.32.

SLNKQIAQLQDFVRAKGSQSGRHL [STX5]: the protein stability index is, setting by setting: under setting [1], 3.08 ± 0.23; under setting [2], 3.14 ± 0.55.

For the sequence ALSFTLLGSAPLDQEPLLSIDLGT [NEK8], the protein stability index runs as follows: under setting [1], 2.29 ± 0.36; under setting [2], 2.44 ± 0.23.

As for CQVEVRLLLAYNSSARIPKCPWME [INTS4], the protein stability index is, setting by setting: under setting [1], 3.21 ± 0.91; under setting [2], 3.1 ± 0.25.

TVAAETRAVIAWMEKIPFVLGGNL [CPXM2]: the protein stability index was 2.56 ± 0.86 under setting [1] and 2.71 ± 0.6 under setting [2].

As to LIYTVMLAFRSGSDNLLVILKRKW [SLC35F2], the protein stability index by setting is: under setting [1], 2.3 ± 0.91; under setting [2], 1.84 ± 0.51.

As for SKHLKEMYQELMEMCHKPDVELLQ [TRIM43], the protein stability index is, setting by setting: under setting [1], 2.71 ± 0.26; under setting [2], 2.7 ± 0.51.

As to DKSEYLEMEEGVKESLCAKEEKCQ [KCNA4], the protein stability index is, setting by setting: under setting [1], 5.68 ± 0.1; under setting [2], 5.54 ± 0.19.

Consider GRCATRAFHRKSHSLDLNISEKLT [RNF180], for which the protein stability index is 3.73 ± 0.43 under setting [1] and 3.63 ± 0.42 under setting [2].

On to MRTGQNTWESKNILAVSFAPLVQP [PCMTD1], for which the protein stability index reads like this: under setting [1], 2.84 ± 0.65; under setting [2], 2.71 ± 0.46.

For RQTVPPLTVRLHTQSVSECITEDG [PWWP2B], the protein stability index is, setting by setting: under setting [1], 4.94 ± 0.11; under setting [2], 4.7 ± 0.22.

Take TPASNHLPGWEDIESKIPLNMEEP [SLC19A2]: the protein stability index under setting [1] was determined as 5.28 ± 0.21 and the protein stability index under setting [2] was 5.44 ± 0.066.

For VPLWGQLLLFLVFVIVLFFIYHFM [EMD], the protein stability index by setting is: under setting [1], 2.41 ± 0.17; under setting [2], 2.17 ± 0.47.

For VKVPTTLAEYCVKTKAPAPDEGSD [CDC34], the protein stability index reads like this: under setting [1], 5.07 ± 0.43; under setting [2], 4.97 ± 0.12.

With SLKAPGARGPGPEGGGGGSYFSGQ [JUNB], the protein stability index was 4.41 ± 0.45 under setting [1] and 4.67 ± 0.24 under setting [2].

In the case of LVGNKSDLRHLRAVPTDEARAFAE [RAB11A], the protein stability index stood at 4.29 ± 0.34 under setting [1] and 4.39 ± 0.21 under setting [2].

For FHLDVEDYLSGVLILASELSRLSV [TSN], the protein stability index worked out at 3.06 ± 0.74 under setting [1] and 3.04 ± 0.48 under setting [2].

For the sequence KHSNKKVMRTKSSEKAANDDHSVR [CPXM2], the protein stability index reads like this: under setting [1], 5.13 ± 0.29; under setting [2], 5.2 ± 0.22.

Consider EFVVRCFACPSQALFFKNIMNIID [KCNA4], for which the protein stability index is 2.4 ± 0.78 under setting [1] and 2.12 ± 0.55 under setting [2].

As to PGARGLWKPPDIKGKLMVCYETLP [SPAG8], the protein stability index runs as follows: under setting [1], 2.56 ± 0.26; under setting [2], 2.51 ± 0.16.

For the sequence GSIPGFLISSGMSSHKQGHTSSEY [TAF7L], the protein stability index is 3.25 ± 0.23 under setting [1] and 3.29 ± 0.29 under setting [2].

For the sequence FPRDHTSLALVQNGDVSAPSAILR [ANKRD40], the protein stability index runs as follows: under setting [1], 3.72 ± 0.34; under setting [2], 3.97 ± 0.2.

For LLSRLEEEEQDILQRLRENAAHLG [TRIM39], the protein stability index is 3.63 ± 0.16 under setting [1] and 3.71 ± 0.33 under setting [2].

With HQLVMEGYNWCHDRNVVTIFSAPN [PPP2CA], the protein stability index is, setting by setting: under setting [1], 2.51 ± 0.14; under setting [2], 2.49 ± 0.18.

As for SHPDTSYYIRYRGAVYADSGNFER [FEM1A], the protein stability index came to 2.88 ± 0.38 under setting [1] and 2.83 ± 0.28 under setting [2].

Consider ENEKDRADQTVLTEDEKKELENLA [CHGB], for which the protein stability index was found to be 5.54 ± 0.19 under setting [1] and 5.75 ± 0.18 under setting [2].

Turning to AEFILLGLLEAPGLQPVVFVLFLF [OR3A1], the protein stability index is, setting by setting: under setting [1], 2.68 ± 0.32; under setting [2], 2.95 ± 0.4.

VTLRRGLRSRASRCRPRSLIDYKS [FAM189A2] yielded a protein stability index under setting [1] of 2.12 ± 0.33 and a protein stability index under setting [2] of 2.23 ± 0.39.

Sequence ANLAASGGYAIAVVLLQGAELLLA [TSPAN10] yielded a protein stability index under setting [1] of 2.97 ± 0.54 and a protein stability index under setting [2] of 3.05 ± 0.92.

DIKICALGEEWSLHKIYLCQSGYF [GMCL1] came in with a protein stability index under setting [1] of 2.91 ± 0.62 and a protein stability index under setting [2] of 2.62 ± 0.49.

The sequence PKKEANQAPKSKSGSRPRKPPPRK [LRRC59] gave a protein stability index under setting [1] of 4.92 ± 0.21 and a protein stability index under setting [2] of 5 ± 0.18.

Take LGIPKNPWLWSEQQVCQWLLWATN [ETS2]: the protein stability index under setting [1] was 2.29 ± 0.3 and the protein stability index under setting [2] was determined as 2.33 ± 0.15.

Take NCKPLKSYMLQDSLEHVQLFDLMR [CLK3]: the protein stability index is 2.11 ± 0.31 under setting [1] and 2.25 ± 0.35 under setting [2].

As for ARQHALYIWEKSIGNLVKILHGTR [RBBP5], the protein stability index under setting [1] was found to be 2.26 ± 0.36 and the protein stability index under setting [2] is 2.5 ± 0.41.

Turning to PTGDVLLDEALKHVKETQPPETVQ [GOLPH3], the protein stability index was found to be 5.32 ± 0.1 under setting [1] and 5.21 ± 0.1 under setting [2].

In turn, YRVLLGHTLILMFIWFVCSLVYYG [SLC22A15] came in with a protein stability index under setting [1] of 2.32 ± 0.53 and a protein stability index under setting [2] of 2.33 ± 0.57.

On to TAQVQKDARIGEAEAKRDAGIREA [FLOT1], for which the protein stability index under setting [1] worked out at 5.34 ± 0.16 and the protein stability index under setting [2] worked out at 5.31 ± 0.19.

As for EDIVFETDHILESLYRDIRDIQDE [STX11], the protein stability index is, setting by setting: under setting [1], 4.08 ± 0.12; under setting [2], 4.31 ± 0.14.

KAKHFKCHICHKKLYTGPGLAIHC [ZNF207]: the protein stability index worked out at 2.33 ± 0.23 under setting [1] and 2.62 ± 0.76 under setting [2].

Regarding YIIIVPLKKSRGKFIKPWESPDEM [PTPRD], the protein stability index reads like this: under setting [1], 2.5 ± 0.45; under setting [2], 3.02 ± 1.5.

Turning to SKLDTTKALNLLPANTQINDIRIF [VPS39], the protein stability index turned out to be 2.55 ± 0.33 under setting [1] and 2.66 ± 0.31 under setting [2].

Take HEPLSKERVEAFSDGVYAIVATLL [TMEM175]: the protein stability index reads like this: under setting [1], 2.15 ± 0.28; under setting [2], 2.15 ± 0.11.

The sequence RYLAVLESPIPEDKDRRFVFSYFL [EFHC1] yielded a protein stability index under setting [1] of 2.37 ± 0.38 and a protein stability index under setting [2] of 2.25 ± 0.85.

VQKDKYPEEFSLLKLQTKDGHRPE [SPATS1]: the protein stability index under setting [1] is 4.64 ± 0.23 and the protein stability index under setting [2] was found to be 5 ± 0.33.

Take STLKKALPTLSHIQEAQSAWKDDF [YJU2B]: the protein stability index was 3.53 ± 0.36 under setting [1] and 3.75 ± 0.09 under setting [2].

On to AYHDPMLKLSIMSEEELTHIFGDL [NET1], for which the protein stability index under setting [1] turned out to be 3.28 ± 0.24 and the protein stability index under setting [2] worked out at 3.5 ± 0.48.

Turning to VSEFLKVAEQVGIDKGDIPDLTQA [SNAP91], the protein stability index stood at 4.18 ± 0.45 under setting [1] and 4.13 ± 0.44 under setting [2].

With FGIDVKEVDPTGHSFVLVTSLGLT [MAGEA10], the protein stability index was 2.43 ± 0.55 under setting [1] and 2.28 ± 0.59 under setting [2].

In the case of DLESQVESLREELICLKKNHEEEV [KRT34], the protein stability index was 4.86 ± 0.24 under setting [1] and 5.13 ± 0.16 under setting [2].

As for EGGWWKAISLSTGRESYIPGICVA [SLA], the protein stability index under setting [1] was 2.03 ± 0.91 and the protein stability index under setting [2] stood at 2.05 ± 0.52.

MAALSRALGPLRTPAPPLWIGLFL: the protein stability index worked out at 2.35 ± 0.26 under setting [1] and 2.28 ± 0.63 under setting [2].

Consider STNRRRLSELLRYHTSQSGDEMTS [HSP90AB1], for which the protein stability index reads like this: under setting [1], 3.85 ± 0.15; under setting [2], 4.11 ± 0.12.

Turning to SFQDNLHNRKKHLNGLQHLKAKKV [ZMAT5], the protein stability index worked out at 3.51 ± 0.46 under setting [1] and 3.49 ± 0.23 under setting [2].

On to EDWVLLGMANGQQWLQSTSGSQRH [TLE6], for which the protein stability index is, setting by setting: under setting [1], 3.41 ± 0.5; under setting [2], 3.2 ± 0.4.

On to PRFHMACPTFRVSIARLEMGPDEY [FBXO3], for which the protein stability index was found to be 2.82 ± 0.21 under setting [1] and 2.72 ± 0.24 under setting [2].

As to PLVALDTDSDDDFDMSRYSSSGYS [FAM219A], the protein stability index is, setting by setting: under setting [1], 4.59 ± 0.52; under setting [2], 4.76 ± 0.38.

For TVEKPGGKKVAVVLMDTQGAFDSQ [ATL3], the protein stability index reads like this: under setting [1], 4.18 ± 0.13; under setting [2], 4.16 ± 0.22.

For the sequence APPLPGAESFPGSQVMGSGRGSLS [PLEKHN1], the protein stability index is 4.82 ± 0.28 under setting [1] and 4.61 ± 0.2 under setting [2].

QARLLNPSATRAKPGPQDTVERPF [NOP53]: the protein stability index reads like this: under setting [1], 4.78 ± 0.24; under setting [2], 4.85 ± 0.14.

MVHQRKLEAELLQIEERHQEKKRK [SMARCE1] came in with a protein stability index under setting [1] of 4.58 ± 0.34 and a protein stability index under setting [2] of 4.36 ± 0.32.

Consider FDDCLYALCVVDTIKRSSQTGEWQ [GFOD1], for which the protein stability index runs as follows: under setting [1], 2.09 ± 0.42; under setting [2], 2.29 ± 0.25.

Turning to YKVKERLGTLKNPPKKKMKLMSG [LCOR], the protein stability index is 2.51 ± 0.41 (treatment: DMSO, c terminus: native) and 3.27 ± 0.068 (treatment: MLN4924 1 uM, 8 h, c terminus: native).

As to AEKSVAPSNTGSRTTSVRCRGIPR [NEK8], the protein stability index reads like this: under setting [1], 4.63 ± 0.16; under setting [2], 4.7 ± 0.26.

For the sequence SPPVPGPSAALTTMQLFSKQNPSR [FBXO28], the protein stability index was found to be 4.22 ± 0.42 under setting [1] and 4.33 ± 0.23 under setting [2].
